Test results reported in patent publication US20240327522A1 (Genentech, published 2024).

Columns and labels:
cyno.aVb8.13650 = target: T1, cyno.aVb8.13650 (cynomolgus, UniProt A0A2K5WCD3 31-992; G7P0S0 43-684); test: SPR binding assay, experiment 2, antibody as ligand, aVb8 as sample
T1 construct: Carries another lot/construct number than cyno.aVb8-19393; kept apart; also called cynomolgus αvβ8

[1] = target: T2, recombinant mouse αvβ8 protein (PARS-17103) (murine, UniProt P43406 31-988; Q0VBD0 43-681, limits assumed); test: as above
T2 construct: Made in house; also called mu.aVb8.17103

[2] = target: T3, recombinant human αvβ8 protein (PARS-17102) (human); test: as above
T3 construct: also called hu.aVb8.17102; not shown: C-terminal acid/basic coils and any purification tags
T3 alpha: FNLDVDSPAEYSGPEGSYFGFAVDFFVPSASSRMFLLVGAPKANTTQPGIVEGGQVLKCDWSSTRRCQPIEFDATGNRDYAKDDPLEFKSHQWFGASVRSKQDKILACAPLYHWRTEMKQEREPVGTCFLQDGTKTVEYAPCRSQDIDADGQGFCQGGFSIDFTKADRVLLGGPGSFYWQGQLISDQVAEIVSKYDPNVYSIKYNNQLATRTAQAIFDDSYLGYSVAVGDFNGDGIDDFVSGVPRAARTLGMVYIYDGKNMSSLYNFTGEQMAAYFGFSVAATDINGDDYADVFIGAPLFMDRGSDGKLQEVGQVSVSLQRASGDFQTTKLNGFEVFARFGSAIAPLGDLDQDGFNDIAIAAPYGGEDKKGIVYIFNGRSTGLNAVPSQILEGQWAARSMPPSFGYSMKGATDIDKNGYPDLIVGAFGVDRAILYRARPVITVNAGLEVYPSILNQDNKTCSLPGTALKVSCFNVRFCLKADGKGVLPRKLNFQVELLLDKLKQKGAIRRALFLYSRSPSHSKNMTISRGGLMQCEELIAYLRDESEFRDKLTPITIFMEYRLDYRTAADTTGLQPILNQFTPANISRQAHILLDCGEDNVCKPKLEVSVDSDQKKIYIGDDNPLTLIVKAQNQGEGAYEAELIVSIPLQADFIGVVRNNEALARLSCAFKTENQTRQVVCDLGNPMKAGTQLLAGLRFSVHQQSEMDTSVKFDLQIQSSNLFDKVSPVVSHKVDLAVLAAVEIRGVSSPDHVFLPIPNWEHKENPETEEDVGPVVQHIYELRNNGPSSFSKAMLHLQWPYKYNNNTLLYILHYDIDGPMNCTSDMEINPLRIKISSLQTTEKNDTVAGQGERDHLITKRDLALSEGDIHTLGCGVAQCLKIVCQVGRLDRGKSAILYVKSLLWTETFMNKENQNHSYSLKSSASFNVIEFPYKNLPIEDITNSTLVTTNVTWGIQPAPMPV
T3 beta: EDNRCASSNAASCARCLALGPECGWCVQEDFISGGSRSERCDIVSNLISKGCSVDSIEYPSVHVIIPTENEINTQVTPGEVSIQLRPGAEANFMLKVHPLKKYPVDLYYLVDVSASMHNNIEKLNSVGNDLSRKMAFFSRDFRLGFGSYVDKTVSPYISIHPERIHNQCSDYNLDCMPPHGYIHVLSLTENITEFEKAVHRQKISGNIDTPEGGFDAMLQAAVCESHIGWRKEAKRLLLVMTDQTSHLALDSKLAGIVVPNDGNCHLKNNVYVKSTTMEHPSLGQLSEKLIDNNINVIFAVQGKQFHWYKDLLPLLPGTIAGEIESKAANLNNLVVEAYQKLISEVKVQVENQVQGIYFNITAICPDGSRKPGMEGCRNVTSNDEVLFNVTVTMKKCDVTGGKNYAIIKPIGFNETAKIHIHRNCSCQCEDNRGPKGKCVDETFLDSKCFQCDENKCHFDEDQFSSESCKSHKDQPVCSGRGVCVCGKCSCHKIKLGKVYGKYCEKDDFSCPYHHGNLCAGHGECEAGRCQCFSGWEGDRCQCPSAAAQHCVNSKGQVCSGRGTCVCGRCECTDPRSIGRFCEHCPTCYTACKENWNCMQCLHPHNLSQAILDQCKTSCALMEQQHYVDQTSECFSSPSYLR

[3] = target: T4, recombinant cynomolgus monkey αvβ8 protein (PARS-19393) (cynomolgus monkey, UniProt A0A2K5WCD3 31-992; G7P0S0 43-684); test: SPR, Biacore T200, antibody captured on Protein A chip, 3-fold analyte series 0-100 nM, 37 C, 1:1 model; average ± as printed
T4 construct: also called cyno.aVb8-19393; cyno.aVb8
Experimental: (§1) The ability of the anti-αVP8-65 to bind to different αVβ8 proteins was assessed using SPR measurements (Karlsson et al. 1991) on a Biacore™ T200 (Cytiva Life Sciences; Marlborough, MA) instrument (Safsten et al. 2006). anti-αV08-65 was first captured on a Biacore™ Protein A biosensor chip (Cytiva Life Sciences) to achieve approximately 60 response units. Binding measurements were performed using a running buffer composed of 10 mM HEPES (pH 7.4), 150 mM NaCl, 0.5 mM CaCl₂), 0.5 mM MgCl₂, and 0.005% Surfactant P20 (Cytiva Life Sciences). A 3-fold dilution series of the analyte proteins (range, 0-100 nM in running buffer) was injected into the Biacore™ T200. All injections were performed over 180 seconds, with a dissociation time of 1200 seconds, at a flow rate of 100 μL/minute and a temperature of 37° C. Between sample injections, 10 mM glycine (pH 1.5) was injected to regenerate the sensor chip (twice, over 30 seconds at 10 μL/minute for each injection). To determine the binding kinetics and affinity constants of anti-αVP8-65 to the various species of the αVβ8 protein, the signal from the reference flow cell (FC1, with only protein A on the surface) was “double referenced” by subtracting the signal observed after injecting the sample over FC1, followed by subtracting the signal observed after injecting only running buffer. The kinetic constants were calculated using non-linear regression fitting of the data, according to a 1:1 Langmuir binding model, using Biacore™ Evaluation Software (Cytiva Life Sciences) for anti-αVP8-65 binding to recombinant human, cynomolgus monkey, mouse, and rat αVβ8 proteins.

[4] = target: T2, recombinant mouse αvβ8 protein …; test: as above
Experimental: as §1

T2 sequence (P43406 31-988 limits assumed, chain 1 of 2): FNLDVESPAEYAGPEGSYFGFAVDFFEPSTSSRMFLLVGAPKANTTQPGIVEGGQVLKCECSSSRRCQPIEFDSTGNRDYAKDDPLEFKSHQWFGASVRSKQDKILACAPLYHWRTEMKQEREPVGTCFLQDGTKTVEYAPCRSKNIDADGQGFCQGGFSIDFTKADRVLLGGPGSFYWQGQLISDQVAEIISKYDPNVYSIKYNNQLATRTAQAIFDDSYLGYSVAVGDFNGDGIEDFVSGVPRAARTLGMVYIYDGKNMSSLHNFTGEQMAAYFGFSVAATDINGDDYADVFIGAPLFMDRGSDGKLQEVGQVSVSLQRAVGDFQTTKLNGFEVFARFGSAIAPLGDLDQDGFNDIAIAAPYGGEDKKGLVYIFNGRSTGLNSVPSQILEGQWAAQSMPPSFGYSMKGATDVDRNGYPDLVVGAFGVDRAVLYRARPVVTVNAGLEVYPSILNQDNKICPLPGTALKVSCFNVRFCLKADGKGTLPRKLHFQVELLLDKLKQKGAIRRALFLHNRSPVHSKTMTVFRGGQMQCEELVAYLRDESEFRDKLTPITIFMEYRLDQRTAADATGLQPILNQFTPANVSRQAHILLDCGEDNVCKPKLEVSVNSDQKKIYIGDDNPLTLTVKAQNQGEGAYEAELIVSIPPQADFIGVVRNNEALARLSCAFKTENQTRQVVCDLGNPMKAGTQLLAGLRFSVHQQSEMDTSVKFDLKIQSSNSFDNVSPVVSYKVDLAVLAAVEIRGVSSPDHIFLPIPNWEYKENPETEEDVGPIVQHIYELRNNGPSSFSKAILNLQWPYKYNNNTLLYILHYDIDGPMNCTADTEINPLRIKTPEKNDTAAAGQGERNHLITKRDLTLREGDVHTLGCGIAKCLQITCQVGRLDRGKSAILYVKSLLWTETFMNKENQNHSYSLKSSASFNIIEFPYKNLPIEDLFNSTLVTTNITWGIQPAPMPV
T2 sequence (Q0VBD0 43-681 limits assumed, chain 2 of 2): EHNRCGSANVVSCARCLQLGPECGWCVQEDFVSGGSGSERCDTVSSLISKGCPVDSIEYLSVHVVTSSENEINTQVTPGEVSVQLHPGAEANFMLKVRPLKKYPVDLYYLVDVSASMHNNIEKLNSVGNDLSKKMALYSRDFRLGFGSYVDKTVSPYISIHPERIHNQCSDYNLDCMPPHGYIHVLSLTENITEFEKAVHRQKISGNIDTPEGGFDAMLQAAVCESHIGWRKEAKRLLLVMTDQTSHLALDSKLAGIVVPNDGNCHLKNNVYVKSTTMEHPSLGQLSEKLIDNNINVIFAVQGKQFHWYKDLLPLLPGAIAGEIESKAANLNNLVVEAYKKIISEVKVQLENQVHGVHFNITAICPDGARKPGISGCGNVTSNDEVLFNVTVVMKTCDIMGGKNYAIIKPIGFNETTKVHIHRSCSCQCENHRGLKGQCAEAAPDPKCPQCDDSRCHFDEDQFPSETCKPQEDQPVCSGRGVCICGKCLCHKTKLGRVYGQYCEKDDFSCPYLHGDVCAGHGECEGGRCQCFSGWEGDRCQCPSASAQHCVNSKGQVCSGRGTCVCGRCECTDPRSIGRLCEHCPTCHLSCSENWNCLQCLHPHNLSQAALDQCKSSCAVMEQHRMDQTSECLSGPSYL

Kd (cyno.aVb8.13650): 2.41 nM
koff (cyno.aVb8.13650): 0.000151 s⁻¹
kon (cyno.aVb8.13650): 62700 M⁻¹ s⁻¹
Kd [1]: 1.23 nM
koff [1]: 0.000152 s⁻¹
kon [1]: 123000 M⁻¹ s⁻¹
Kd [2]: 1.04 nM
koff [2]: 0.000181 s⁻¹
kon [2]: 174000 M⁻¹ s⁻¹
Kd [3]: 0.7 nM
koff [3]: 0.00013 s⁻¹
kon [3]: 180000 M⁻¹ s⁻¹
Kd [4]: 0.94 nM
koff [4]: 0.000108 s⁻¹
kon [4]: 140000 M⁻¹ s⁻¹
B1: Hu.aVb8-65.H15L2 (aVb8-65.H15L2.hIgG1.LALAPG) (antibody, V domains shown)
VH: EVQLLESGGGLVQPGGSLRLSCAASGIDLSNYAMIWVRQAPGKGLEWVGIISSSDRIWYASWVKGRFTISRDNSKNTLYLQMNSLRAEDTAVYYCSRSVSNSYFDGWNLWGQGTLVTVSS
VL: DIQMTQSPSSVSASVGDRVTITCQASENINSLLAWYQQKPGKAPKLLIYRASTLASGVPSRFSGSGSGTDFTLTISSLQPEDFATYYCQSNYGFTGSGAFFYGFGQGTKVEIKR
notes: Human IgG1 LALAPG; also called PARS-20475-65 (IH) aVb8-65.H15L2.hIgG1.LALAPG; humanized αvβ8-65
